Substrate in the series “purified protein”: O=[N+]([O-])c1ccc(O[C@@H]2O[C@H](CO)[C@@H](O)[C@H](O)[C@H]2O)cc1
The series can be described thus: purified protein. Conditions: pH 5.5, 30°C, 0.5-15 mM substrate, authors note sigmoidal v0 vs [S].

Substrate in series [1]: OC[C@H]1O[C@@H](Oc2cc(O)cc(/C=C/c3ccc(O)cc3)c2)[C@H](O)[C@@H](O)[C@@H]1O
As to the kind of experiment: HPLC of glucose or aglycone, Michaelis-Menten fit. The series is classed as biochemical, Lacticaseibacillus paracasei. The note with it: pH 5.5, 30°C, 0.5-15 mM substrate. The text has this: (§1) HPLC of glucose or aglycone, Michaelis-Menten fit on LpBgla

Substrate in series [2]: OCc1ccccc1O[C@@H]1O[C@H](CO)[C@@H](O)[C@H](O)[C@H]1O
As to the kind of experiment: HPLC of glucose or aglycone, Michaelis-Menten fit. The series is classed as biochemical, Lacticaseibacillus paracasei. The note with it: pH 5.5, 30°C, 0.5-15 mM substrate.
Excerpt: as §1

Substrate in series [3]: COC(=O)C1=CO[C@@H](O[C@@H]2O[C@H](CO)[C@@H](O)[C@H](O)[C@H]2O)[C@@H]2C(CO)=CC[C@H]12
As to the kind of experiment: HPLC of glucose or aglycone, Michaelis-Menten fit. The series is classed as biochemical, Lacticaseibacillus paracasei. Conditions: pH 5.5, 30°C, 0.5-15 mM substrate.
Excerpt: as §1

Substrate in series [4]: O=c1ccc2cc(O[C@@H]3O[C@H](CO)[C@@H](O)[C@H](O)[C@H]3O)c(O)cc2o1
As to the kind of experiment: HPLC of glucose or aglycone, Michaelis-Menten fit. It is filed as biochemical, Lacticaseibacillus paracasei. The note with it: pH 5.5, 30°C, 0.5-15 mM substrate.
Excerpt: as §1

Substrate in series [5]: OC[C@H]1O[C@@H](Oc2ccc(O)cc2)[C@H](O)[C@@H](O)[C@@H]1O
As to the kind of experiment: HPLC of glucose or aglycone, Michaelis-Menten fit. The series is classed as biochemical, Lacticaseibacillus paracasei. Conditions: pH 5.5, 30°C, 0.5-15 mM substrate.
Excerpt: as §1

Consider one protein from publication PMC10851751, “Characterization and insight mechanism of an acid-adapted β-Glucosidase from Lactobacillus paracasei and its application in bioconversion of glycosides” (Frontiers in Bioengineering and Biotechnology, 2024).

The term Km denotes the substrate concentration at which the rate is half of its maximum. Broadly, the kcat is the maximal rate divided by the concentration of active sites. As a reminder, the kcat/Km is the second-order rate constant that governs catalysis at low substrate concentration.

B1: LpBgla (Lacticaseibacillus paracasei ATCC 334) (protein)
chain: MGVVVSNFHLAKITAEEKVKLTSGKDFWTSEHLADKGIPSFRMSDGPHGLRYQALAADHLGINDSVPSTSFPTASASAAAWDPDLIQAMGKAIGLEAQSLGVDMVLGPGVNMKRNPLCGRNFEYFSEDPFLAGKLGAAWINGIQSQGIAACLKHFAANNQENDRLSSDSLVDPTALHEIYLEAFRIAVTESHPEAVMCSYNKINGTYASDNLYLMTQVLRQQFGFGGAVITDWGALNDKVAALNAGTDLEMPGDDHLFDGEALQAYQQGTLKLASLDRAVTKIAEIARKQRPKFQGSREQLLQANGQLAQKIAESAIVLLKNEAALLPLQATDTVAVIGELAKATRFQGAGSSHINASEIVSVLDGLKQKKVSFDYAAGYRLDDQDDSQATAEALALARNHDKVVFVAGLPDNYESEGFDRQNMALPKVQNDLLQAVTAVNPNVIVLLVAGAPVELPWVDQVKAVVNLSLGGERIGAAAANVLTGAVNPSGKLAESYPLKYQDVPSADVYDKKPRSVPYVESTYIGYRYYDKAKVPVAFPFGFGLSYTSFALKNIQLSSDHVTDDQPLTISLQVTNTGQVDGAEVVQVYVQEQQPRPLRPEKSLKAFKKVFVKAGQTVNVALELKAQAFKEWREQTQTWVLPEAQKAIAVGTSVTNIDAVLPVSFTGETFNNFATIPNWYTTLSGKPSVQDFEQLTDQKVPAPHEFVPGEFTRLNTPREMKKHSLLLRLVAWITVKIRTKDYIDKQGPEAKFQQAIVLDTPLIRLAQQASGALKLSMVDRLVAAANHQYVKMIFR
notes: full-length gene (2,388 bp, 796 amino acids), pET28a, His-tagged, E. coli BL21(DE3), Ni-NTA; monomer
For the protein B1, the Km is 1440 ± 80 µM in “purified protein”; 5710 ± 100 µM in series [1]; 2250 ± 10 µM in series [2]; 2870 ± 50 µM in series [3]; 3610 ± 80 µM in series [4]; 1920 ± 30 µM in series [5]. Besides, the kcat in the series “purified protein” worked out at 3982 ± 14 s⁻¹; in series [1], 1730 ± 45 s⁻¹; in series [2], 2970 ± 88 s⁻¹; in series [3], 2520 ± 23 s⁻¹; in series [4], 2210 ± 38 s⁻¹; in series [5] it was 3570 ± 72 s⁻¹. In addition, the kcat/Km came out at 2.76e+06 M⁻¹ s⁻¹ in the series “purified protein”; 303000 M⁻¹ s⁻¹ in series [1]; 1.32e+06 M⁻¹ s⁻¹ in series [2]; 878000 M⁻¹ s⁻¹ in series [3]; 611000 M⁻¹ s⁻¹ in series [4]; 1.86e+06 M⁻¹ s⁻¹ in series [5].
